# Data published in patent US20150203577A1 (Chugai, published 2015).
# Residue numbers refer to the chain shown, from its start.
# T1: mouse FcγRII extracellular domain, C-terminally His-tagged (mouse, UniProt P08101 30-210)
# T1 construct: the whole entry is named; also called mFcγRII; mFcgRII
# T1 sequence: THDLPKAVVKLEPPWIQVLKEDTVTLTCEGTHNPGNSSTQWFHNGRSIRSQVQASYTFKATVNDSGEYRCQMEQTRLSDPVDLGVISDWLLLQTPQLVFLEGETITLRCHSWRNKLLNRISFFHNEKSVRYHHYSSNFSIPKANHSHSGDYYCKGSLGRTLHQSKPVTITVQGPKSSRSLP
# T2: mouse FcγRIII extracellular domain, C-terminally His-tagged (mouse, UniProt P08508 31-215)
# T2 construct: the whole entry is named; also called mFcγRIII; mFcgRIII
# T2 chain: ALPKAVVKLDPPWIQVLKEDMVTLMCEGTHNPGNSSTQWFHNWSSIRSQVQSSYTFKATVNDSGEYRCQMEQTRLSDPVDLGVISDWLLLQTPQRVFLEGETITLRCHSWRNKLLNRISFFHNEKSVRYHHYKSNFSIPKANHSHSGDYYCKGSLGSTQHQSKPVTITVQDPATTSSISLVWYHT
# T3: mouse FcγRII (mouse, UniProt P08101 30-210)
# T3 construct: Extracellular domain with C-terminal His tag, made in FreeStyle 293 cells; also called mFcγRII; mFcgRII
# T3 sequence: T1 sequence
# T4: mouse FcγRIII (mouse, UniProt P08508 31-215)
# T4 construct: Extracellular domain with C-terminal His tag, made in FreeStyle 293 cells; also called mFcγRIII; mFcgRIII
# T4 chain: T2 chain
# B1: H237-MB515/MRAL-k0 (antibody, mouse IgG1, kappa)
# heavy: QVQLQESGPGLVKPSETLSLTCAVSGHSISHDHAWSWVRQPPGEGLEWIGFISYSGITNYNPSLQGRVTISRDNSKNTLYLQMNSLRAEDTAVYYCARSLARTTAMDYWGEGTLVTVSSAKTTPPSVYPLAPGSAAQTNSMVTLGCLVKGYFPEPVTVTWNSGSLSSGVHTFPAVLQSDLYTLSSSVTVPSSTWPSETVTCNVAHPASSTKVDKKIVPRDCGCKPCICEPNEVEMVFIFPPKPKDVLTITLTPKVTCVVVDISKDDPEVQFSWFVDDVEVHTAQTQPREEQFNSTFRSVSELPIMHQDWLNGKEFKCRVNSAAFPAPIEKTISKTKGRPKAPQVYTIPPPKEQMAKDKVSLTCMITDFFPEDITVEWQWNGQPAENYKNTQPIMDTDGSYFVYSKLNVQKSNWEAGNTFTCSVLHEGLHNHHTEKSLSHSPGK
# light: not shown
# notes: Template; copies: 2 + 2
# B2: H237-MB533/MRAL-k0 (antibody, mouse IgG1, kappa)
# heavy: B1 heavy with E229Q, M235E, S294L, N320D, A322D
# light: not shown
# notes: copies: 2 + 2
# B3: H237-MB534/MRAL-k0 (antibody, mouse IgG1, kappa)
# heavy: B1 heavy with E229Q, M235E, S294L, N320D, K330R
# light: not shown
# notes: copies: 2 + 2
# B4: H237-MB535/MRAL-k0 (antibody, mouse IgG1, kappa)
# heavy: B1 heavy with E229Q, M235E, S294L, A322D, K330R
# light: not shown
# notes: copies: 2 + 2
# B5: H237-MB536/MRAL-k0 (antibody, mouse IgG1, kappa)
# heavy: B1 heavy with E229Q, M235E, N320D, A322D, K330R
# light: not shown
# notes: copies: 2 + 2
# B6: H237-MB537/MRAL-k0 (antibody, mouse IgG1, kappa)
# heavy: B1 heavy with E229Q, M235E, S294L, N320D, A322D, K330R
# light: not shown
# notes: also called M6537; copies: 2 + 2
# B7: H237-MB538/MRAL-k0 (antibody, mouse IgG1, kappa)
# heavy: B1 heavy with S294L
# light: not shown
# notes: copies: 2 + 2
# B8: H237-MB539/MRAL-k0 (antibody, mouse IgG1, kappa)
# heavy: B1 heavy with S294L, N320D
# light: not shown
# notes: copies: 2 + 2
# B9: H237-MB540/MRAL-k0 (antibody, mouse IgG1, kappa)
# heavy: B1 heavy with S294L, A322D
# light: not shown
# notes: copies: 2 + 2
# B10: H237-MB541/MRAL-k0 (antibody, mouse IgG1, kappa)
# heavy: B1 heavy with S294L, K330R
# light: not shown
# notes: copies: 2 + 2
# B11: H237-MB542/MRAL-k0 (antibody, mouse IgG1, kappa)
# heavy: B1 heavy with N320D, A322D
# light: not shown
# notes: copies: 2 + 2
# B12: H237-MB543/MRAL-k0 (antibody, mouse IgG1, kappa)
# heavy: B1 heavy with N320D, K330R
# light: not shown
# notes: copies: 2 + 2
# B13: H237-MB544/MRAL-k0 (antibody, mouse IgG1, kappa)
# heavy: B1 heavy with A322D, K330R
# light: not shown
# notes: copies: 2 + 2
# B14: H237-MB545/MRAL-k0 (antibody, mouse IgG1, kappa)
# heavy: B1 heavy with S294L, N320D, A322D
# light: not shown
# notes: copies: 2 + 2
# B15: H237-MB546/MRAL-k0 (antibody, mouse IgG1, kappa)
# heavy: B1 heavy with S294L, N320D, K330R
# light: not shown
# notes: copies: 2 + 2
# B16: H237-MB547/MRAL-k0 (antibody, mouse IgG1, kappa)
# heavy: B1 heavy with S294L, A322D, K330R
# light: not shown
# notes: copies: 2 + 2
# B17: H237-MB548/MRAL-k0 (antibody, mouse IgG1, kappa)
# heavy: B1 heavy with N320D, A322D, K330R
# light: not shown
# notes: copies: 2 + 2
# B18: H237-MB549/MRAL-k0 (antibody, mouse IgG1, kappa)
# heavy: B1 heavy with S294L, N320D, A322D, K330R
# light: not shown
# notes: copies: 2 + 2
# B19: H237-MB526/MRAL-k0 (antibody, mouse IgG1, kappa)
# heavy: B1 heavy with E229Q, M235E, S294L
# light: not shown
# notes: copies: 2 + 2
# B20: H237-MB528/MRAL-k0 (antibody, mouse IgG1, kappa)
# heavy: B1 heavy with E229Q, M235E, S294L, A322D
# light: not shown
# notes: copies: 2 + 2
# Target: T1, mouse FcγRII extracellular domain, …
# Experiment: SPR Biacore T200, KD ratio
# Excerpt: (§1) The antibody H chain variable region used was the variable region H237 (SEQ ID NO: 1) of the H chain VH3-IgG1 of the anti-IL-6 receptor antibody Fv4-IgG1 described in WO2009/125825. The antibody L chain commonly used was the L chain MRAL-k0 (SEQ ID NO: 2) of the anti-IL-6 receptor antibody tocilizumab. H237-MB476/MRAL-k0 and H237-MB515/MRAL-k0 were used as templates to introduce new alterations. These variants were expressed and purified by the method of Reference Example 1 and evaluated for their binding to mFcγRII and mFcγRIII by the method of Reference Example 2 using Biacore T200.
# (§2) Each altered antibody was analyzed for its interaction with each Fcγ receptor prepared above using Biacore T100 (GE Healthcare Japan Corp.), Biacore T200 (GE Healthcare Japan Corp.), Biacore A100, or Biacore 4000. The running buffer used was HBS-EP+ (GE Healthcare Japan Corp.). The assay temperature was set to 25° C. The sensor chips used were chips prepared by immobilizing Protein L (ACTIGEN or BioVision) onto Series S Sensor Chip CM5 (GE Healthcare Japan Corp.) or Series S Sensor Chip CM4 (GE Healthcare Japan Corp.) by the amine coupling method.
# (§3) In order to calculate the KD value of each altered antibody for FcγR, kinetic analysis was conducted according to the following method: first, the antibody of interest was captured onto any of these chips and allowed to interact with mFcγR diluted with a running buffer. For the obtained sensorgram, the assay results were globally fit into the 1:1 Langmuir binding model using Biacore Evaluation Software to calculate an association rate constant ka (L/mol/s) and a dissociation rate constant kd (1/s). From these values, the dissociation constant KD (mol/L) was calculated.
Binder,relative mFcγRII-binding activity (mIgG1 = 1) [fold],relative mFcγRII-binding activity (H237-mIgG1/MRAL-k0 = 1) [fold],relative mFcγRII-binding activity (template H237-MB515/MRAL-k0 = 1) [fold]
B1,137,,
B2,394,,
B3,421,,
B4,422,,
B5,396,,
B6,510,,
B7,86.2,,
B8,105,,
B9,149,,
B10,103,,
B11,384,≥ 350,≥ 1.4
B12,195,,≥ 1.4
B13,276,,≥ 1.4
B14,163,,
B15,158,,
B16,170,,
B17,357,≥ 350,≥ 1.4
B18,210,,

# Target: T2, mouse FcγRIII extracellular domain, …
# Experiment: SPR Biacore T200, KD ratio
# Excerpt: as §1, §2, §3
row,Binder,relative mFcγRIII-binding activity (mIgG1 = 1) [fold]
1,B1,1.3
2,B2,7.2
3,B3,33.8
4,B4,8.5
5,B5,7.7
6,B6,8.9
7,B7,1.7
8,B8,1.9
9,B9,2.8
10,B10,3.3
11,B11,3.4
12,B12,2.2
13,B13,3.2
14,B14,2.7
15,B15,5.6
16,B16,4.5
17,B17,3.9
18,B18,5.4

# Target: T1, mouse FcγRII extracellular domain, …
# Experiment: SPR Biacore T200, KD ratio, template MB476
# Excerpt: as §1, §2, §3
row,Binder,relative mFcγRII-binding activity (template = 1) [fold]
1,B2,1.51
2,B3,1.61
3,B4,1.61
4,B5,1.52
5,B6,1.95

# Target: T2, mouse FcγRIII extracellular domain, …
# Experiment: SPR Biacore T200, KD ratio, template MB476
# Excerpt: as §1, §2, §3
row,Binder,relative mFcγRIII-binding activity (template = 1) [fold]
1,B2,2.74
2,B3,12.8
3,B4,3.21
4,B5,2.9
5,B6,3.36

# Target: T1, mouse FcγRII extracellular domain, …
# Experiment: SPR Biacore T200, KD ratio, template MB515
# Excerpt: as §1, §2, §3
row,Binder,relative mFcγRII-binding activity (template = 1) [fold]
1,B1,1
2,B7,0.63
3,B8,0.77
4,B9,1.09
5,B10,0.75
6,B11,2.8
7,B12,1.42
8,B13,2.01
9,B14,1.19
10,B15,1.15
11,B16,1.24
12,B17,2.6
13,B18,1.53

# Target: T2, mouse FcγRIII extracellular domain, …
# Experiment: SPR Biacore T200, KD ratio, template MB515
# Excerpt: as §1, §2, §3
row,Binder,relative mFcγRIII-binding activity (template = 1) [fold]
1,B1,1
2,B7,1.3
3,B8,1.45
4,B9,2.15
5,B10,2.48
6,B11,2.57
7,B12,1.69
8,B13,2.45
9,B14,2.02
10,B15,4.28
11,B16,3.43
12,B17,2.99
13,B18,4.11

# Target: T3, mouse FcγRII
# Experiment: SPR (Biacore), antibody captured on Protein L
row,Binder,Kd [nM]
1,B19,0.904
2,B20,0.56

# Target: T4, mouse FcγRIII
# Experiment: SPR (Biacore), antibody captured on Protein L
row,Binder,Kd [nM]
1,B19,33
2,B20,19.3

# Target: T3, mouse FcγRII
# Experiment: SPR (Biacore), KD of H237-mIgG1/MRAL-k0 / KD of variant
# Description: as §2, §3
row,Binder,relative mFcγRII-binding activity (mIgG1 = 1) [fold]
1,B19,232
2,B20,375

# Target: T4, mouse FcγRIII
# Experiment: as above
# Description: as §2, §3
row,Binder,relative mFcγRIII-binding activity (mIgG1 = 1) [fold]
1,B19,8.5
2,B20,14.6
